Test results from patent US20250032627A1, “T[…] BASED UPON DRUG CONJUGATES” (priority 2023, published 2025).

Columns and labels:
[1] = Solubility and stability of CPT-K3 in borate buffer precursor solution; assay type: physicochemical
From the text: Referring now to FIG. 3, CPT-K3 remains stable in a clear precursor solution.

[2] = tested on: U87 glioblastoma cells; experiment: In vitro cytotoxicity, cell viability by SRB method; assay type: cell-based, human; conditions: CPT compared with CPT-K3
Protocol: FIG. 10A is a table providing the IC50 of CPT and CPT-K3. FIG. 10B is a plot of cell viability (%) vs. concentration;
FIG. 10A is a table providing the IC50 of CPT and CPT-K3. FIG. 10B is a plot of cell viability (%) vs. concentration. In this example, cell viability (%) was determined using the SRB method.

Structure (SMILES) | stability in borate buffer (time stable) ([1]; 75-mM borate buffer) | solubility in borate buffer ([1]; borate buffer) | cytotoxicity against the U87 glioblastoma cell line [2]
CC[C@@]1(OC(=O)CCC(=O)N[C@@H](CCCCN)C(=O)N[C@@H](CCCCN)C(=O)N[C@@H](CCCCN)C(=O)O)C(=O)OCc2c1cc1n(c2=O)Cc2cc3ccccc3nc2-1 [CPT-K3] | at least 24 hours | good solubility | comparable cytotoxicity
CC[C@@]1(O)C(=O)OCc2c1cc1n(c2=O)Cc2cc3ccccc3nc2-1 [CPT, camptothecin, reference compound] | – | – | comparable cytotoxicity
